Test results from patent publication US20060134087A1, “ITI-D1 Kunitz domain mutants as hNE inhibitors” (Dyax Corp., priority 1988, published 2006).

Molecular target: T1, hNE (Homo sapiens, UniProt P08246)
T1 sequence (P08246 30-267): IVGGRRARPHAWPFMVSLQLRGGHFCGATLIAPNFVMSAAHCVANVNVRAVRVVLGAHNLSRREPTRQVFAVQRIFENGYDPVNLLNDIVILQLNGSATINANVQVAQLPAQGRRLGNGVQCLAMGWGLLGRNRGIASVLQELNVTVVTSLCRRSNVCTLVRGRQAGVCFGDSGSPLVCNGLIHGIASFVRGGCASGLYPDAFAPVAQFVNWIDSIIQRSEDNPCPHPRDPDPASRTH
Test: Resistance to oxidative inactivation by Chloramine-T, residual hNE-inhibition activity
Format: physicochemical
Conditions: 20 minutes at RT
Method: At the end of the incubation period, the oxidation reactions were quenched by adding methionine to a final concentration of 4 mM. After a further 10 minute incubation, the quenched reactions were diluted and assayed for residual inhibitor activity in our standard hNE-inhibition assay.
Inhibitors were incubated in the presence of Chloramine-T at the molar ratios indicated for 20 minutes at RT. Oxidation reactions were quenched by adding methionine to a final concentration of 4 mM. Residual hNE-inhibition activity remaining in the quenched reactions is shown as a percentage of the activity observed with no added oxidant.

B1: Secretory Leucocyte Protease Inhibitor (protein)
chain: SGKSFKAGVCPPKKSAQCLRYKKPECQSDWQCPGKKRCCPDTCGIKCLDPVDTPNPTRRKPGKCPVTYGQCLMLNPPNFCEMDGQCKRDLKCCMGMCGKSCVSPVKA
- Percent Residual hNE-Inhibitory Activity (Molar Ratio CHL-T:Inhibitor 0): 100%
- Percent Residual hNE-Inhibitory Activity (Molar Ratio CHL-T:Inhibitor 0.29): 93%
- Percent Residual hNE-Inhibitory Activity (Molar Ratio CHL-T:Inhibitor 1.2): 65%
- Percent Residual hNE-Inhibitory Activity (Molar Ratio CHL-T:Inhibitor 2.4): 48%
- Percent Residual hNE-Inhibitory Activity (Molar Ratio CHL-T:Inhibitor 5.9): 18%
- Percent Residual hNE-Inhibitory Activity (Molar Ratio CHL-T:Inhibitor 12.): 15%
- Percent Residual hNE-Inhibitory Activity (Molar Ratio CHL-T:Inhibitor .59): 82%
- Percent Residual hNE-Inhibitory Activity (Molar Ratio CHL-T:Inhibitor .88): 73%
